For data set [1], the target named is c-Src SH2. The data set can be described thus: SH2 binding enrichment of the phosphorylated peptide, bacterial display (enrichment ratio); higher = better substrate or ligand; peptides without Tyr show the background.
For data set [2], the target named is SHP2-C SH2. The description is as above.
The target of data set [3] is Grb2 SH2 (UniProt P62993). The description is as above.
Data set [4] addresses EPHB1 (UniProt P54762). The data set can be described thus: phosphorylation enrichment, bacterial display (enrichment ratio); higher = better substrate or ligand; peptides without Tyr show the background.
The target of data set [5] is FGFR1 (UniProt P11362). The description is as above.
Chain of FGFR1 (P11362 whole entry, looked up): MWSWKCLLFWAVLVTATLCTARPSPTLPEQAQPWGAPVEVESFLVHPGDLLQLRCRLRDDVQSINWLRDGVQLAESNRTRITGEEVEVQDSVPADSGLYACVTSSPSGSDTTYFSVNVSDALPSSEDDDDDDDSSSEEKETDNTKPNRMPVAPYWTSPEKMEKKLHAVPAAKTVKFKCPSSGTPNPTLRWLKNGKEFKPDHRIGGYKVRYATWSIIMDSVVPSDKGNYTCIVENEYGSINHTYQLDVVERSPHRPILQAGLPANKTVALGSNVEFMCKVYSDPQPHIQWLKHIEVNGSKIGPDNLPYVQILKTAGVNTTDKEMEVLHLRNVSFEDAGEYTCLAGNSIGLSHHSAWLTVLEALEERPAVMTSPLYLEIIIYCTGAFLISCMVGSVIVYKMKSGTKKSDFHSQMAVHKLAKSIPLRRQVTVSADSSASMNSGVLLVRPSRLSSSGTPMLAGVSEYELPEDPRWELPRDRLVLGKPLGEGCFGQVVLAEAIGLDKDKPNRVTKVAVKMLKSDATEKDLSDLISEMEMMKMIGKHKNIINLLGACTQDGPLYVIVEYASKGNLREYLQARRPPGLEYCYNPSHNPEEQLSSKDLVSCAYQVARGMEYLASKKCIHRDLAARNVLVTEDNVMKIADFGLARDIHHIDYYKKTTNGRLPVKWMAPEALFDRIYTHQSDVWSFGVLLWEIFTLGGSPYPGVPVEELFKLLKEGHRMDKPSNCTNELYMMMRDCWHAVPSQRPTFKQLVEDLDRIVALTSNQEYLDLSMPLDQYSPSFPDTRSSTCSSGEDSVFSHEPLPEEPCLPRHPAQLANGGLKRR
Data set [6] concerns the target FGFR3 (UniProt P22607). The data set is described as above.
For data set [7], the system named is c-Src. Described as above.
Data set [8] concerns c-Abl (mouse). The description is as above.
Data set [9] deals with EPHB2 (UniProt P29323). The description is as above.
In data set [10] the target is Fyn (UniProt P06241). Described as above.
Chain of Fyn (P06241 whole entry, looked up): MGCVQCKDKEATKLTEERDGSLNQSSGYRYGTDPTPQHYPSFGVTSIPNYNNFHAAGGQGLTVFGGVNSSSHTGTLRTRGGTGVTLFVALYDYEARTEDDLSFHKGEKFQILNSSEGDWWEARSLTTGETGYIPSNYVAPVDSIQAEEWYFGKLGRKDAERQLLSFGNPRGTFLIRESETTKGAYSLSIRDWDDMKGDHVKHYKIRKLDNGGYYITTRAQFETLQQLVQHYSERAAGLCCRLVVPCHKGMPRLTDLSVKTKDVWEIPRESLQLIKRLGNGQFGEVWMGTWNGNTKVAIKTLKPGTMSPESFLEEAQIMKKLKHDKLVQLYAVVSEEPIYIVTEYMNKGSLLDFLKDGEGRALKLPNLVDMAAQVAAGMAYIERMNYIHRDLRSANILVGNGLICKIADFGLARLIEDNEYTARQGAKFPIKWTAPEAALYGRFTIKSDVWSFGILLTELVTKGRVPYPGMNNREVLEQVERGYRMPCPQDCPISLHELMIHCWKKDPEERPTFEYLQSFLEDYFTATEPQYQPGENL
Data set [11] concerns Fer (mouse). The data set is described as above.
In data set [12] the target is Jak2 (UniProt O60674). The data set is described as above.
Chain of Jak2 (O60674 whole entry, looked up): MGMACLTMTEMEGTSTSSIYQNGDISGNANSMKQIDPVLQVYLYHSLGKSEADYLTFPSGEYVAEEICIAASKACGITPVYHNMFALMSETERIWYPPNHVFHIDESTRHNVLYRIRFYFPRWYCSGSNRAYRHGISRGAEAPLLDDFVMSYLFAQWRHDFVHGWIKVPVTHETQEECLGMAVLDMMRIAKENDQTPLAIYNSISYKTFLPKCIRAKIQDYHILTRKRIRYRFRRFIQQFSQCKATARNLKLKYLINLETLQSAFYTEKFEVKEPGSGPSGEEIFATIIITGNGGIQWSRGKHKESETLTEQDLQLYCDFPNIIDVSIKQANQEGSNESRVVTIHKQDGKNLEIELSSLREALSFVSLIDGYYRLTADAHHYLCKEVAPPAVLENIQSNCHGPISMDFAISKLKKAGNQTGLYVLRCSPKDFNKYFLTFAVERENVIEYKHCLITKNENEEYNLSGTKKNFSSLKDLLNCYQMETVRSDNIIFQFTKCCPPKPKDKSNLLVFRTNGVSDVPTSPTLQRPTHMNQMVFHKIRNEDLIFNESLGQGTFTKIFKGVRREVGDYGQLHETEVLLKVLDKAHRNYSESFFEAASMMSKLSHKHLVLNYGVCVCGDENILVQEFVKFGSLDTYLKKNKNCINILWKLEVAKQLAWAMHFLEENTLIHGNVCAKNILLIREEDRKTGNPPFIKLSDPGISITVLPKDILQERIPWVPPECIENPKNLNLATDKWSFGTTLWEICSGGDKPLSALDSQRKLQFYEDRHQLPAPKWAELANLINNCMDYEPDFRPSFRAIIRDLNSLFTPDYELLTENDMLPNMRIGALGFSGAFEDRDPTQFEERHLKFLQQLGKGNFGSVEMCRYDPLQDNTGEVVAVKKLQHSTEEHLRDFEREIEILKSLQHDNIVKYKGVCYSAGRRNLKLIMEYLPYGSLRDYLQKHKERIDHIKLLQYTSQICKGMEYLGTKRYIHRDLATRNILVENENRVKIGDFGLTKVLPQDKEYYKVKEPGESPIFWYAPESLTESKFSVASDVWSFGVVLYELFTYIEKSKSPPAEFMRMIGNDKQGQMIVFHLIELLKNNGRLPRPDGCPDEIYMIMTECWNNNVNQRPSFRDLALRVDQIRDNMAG
The target in data set [13] is MERTK (UniProt Q12866). The data set is described as above.
Chain of MERTK (Q12866 whole entry, looked up): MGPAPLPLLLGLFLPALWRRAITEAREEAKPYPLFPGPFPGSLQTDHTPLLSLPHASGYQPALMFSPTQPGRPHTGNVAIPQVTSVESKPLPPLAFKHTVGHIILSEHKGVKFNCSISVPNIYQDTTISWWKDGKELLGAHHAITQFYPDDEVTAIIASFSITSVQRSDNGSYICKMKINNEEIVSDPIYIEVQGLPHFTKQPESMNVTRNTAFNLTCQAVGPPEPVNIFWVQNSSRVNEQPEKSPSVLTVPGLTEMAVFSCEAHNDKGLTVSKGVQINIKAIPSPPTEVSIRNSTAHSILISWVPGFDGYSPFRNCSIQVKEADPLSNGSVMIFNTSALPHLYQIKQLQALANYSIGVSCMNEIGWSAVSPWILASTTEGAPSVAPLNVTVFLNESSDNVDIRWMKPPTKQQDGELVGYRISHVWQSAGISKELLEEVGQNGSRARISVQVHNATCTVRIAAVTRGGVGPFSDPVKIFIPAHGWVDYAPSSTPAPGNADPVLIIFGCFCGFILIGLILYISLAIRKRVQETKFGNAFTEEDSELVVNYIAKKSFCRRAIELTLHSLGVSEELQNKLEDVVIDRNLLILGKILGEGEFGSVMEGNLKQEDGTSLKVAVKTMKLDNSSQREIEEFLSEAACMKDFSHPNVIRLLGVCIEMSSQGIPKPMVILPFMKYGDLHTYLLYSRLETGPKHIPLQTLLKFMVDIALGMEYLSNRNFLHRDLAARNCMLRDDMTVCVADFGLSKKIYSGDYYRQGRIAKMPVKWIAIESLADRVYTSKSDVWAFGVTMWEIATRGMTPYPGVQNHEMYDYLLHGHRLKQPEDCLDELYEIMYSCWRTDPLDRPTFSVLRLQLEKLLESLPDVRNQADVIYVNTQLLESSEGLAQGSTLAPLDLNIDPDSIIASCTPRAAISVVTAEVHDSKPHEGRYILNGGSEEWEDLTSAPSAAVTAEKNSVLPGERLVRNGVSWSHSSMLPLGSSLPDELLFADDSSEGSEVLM
Data set [14] deals with AncSZ. Described as above.
The target in data set [15] is Hck (UniProt P08631). The data set is described as above.
Chain of Hck (P08631 whole entry, looked up): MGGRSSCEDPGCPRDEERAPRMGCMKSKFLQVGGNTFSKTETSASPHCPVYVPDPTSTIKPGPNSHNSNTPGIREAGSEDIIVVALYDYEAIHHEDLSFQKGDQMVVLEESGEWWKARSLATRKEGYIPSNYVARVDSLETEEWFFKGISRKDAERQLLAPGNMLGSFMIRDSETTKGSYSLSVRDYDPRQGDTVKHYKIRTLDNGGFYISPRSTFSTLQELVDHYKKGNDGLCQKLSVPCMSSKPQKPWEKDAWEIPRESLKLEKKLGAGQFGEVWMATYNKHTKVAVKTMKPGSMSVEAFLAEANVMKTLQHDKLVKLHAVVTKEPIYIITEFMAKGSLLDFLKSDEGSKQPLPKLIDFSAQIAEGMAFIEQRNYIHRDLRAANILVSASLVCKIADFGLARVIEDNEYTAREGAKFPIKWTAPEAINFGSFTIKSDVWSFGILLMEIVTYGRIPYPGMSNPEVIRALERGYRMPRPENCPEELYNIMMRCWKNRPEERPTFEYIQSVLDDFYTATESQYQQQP
The target in data set [16] is Fes (UniProt P07332). Described as above.
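Wherever SH2 binding enrichment of the phosphorylated peptide, bacterial display is given: peptide library displayed on the E. coli surface as eCPX fusions, selected cells deep-sequenced, score is each peptide's frequency after selection divided by its frequency in the input.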
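Wherever phosphorylation enrichment, bacterial display is given: 11-residue human phosphosite peptides and single-mutation variants displayed on the E. coli surface, counted by deep sequencing, each peptide's frequency after selection divided by its frequency in the unselected input library; frequency after pTyr selection over input frequency; kinase dosed for 20-30% of maximal phosphorylation in three min.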

Chain of Grb2 SH2 (P62993 whole entry, looked up): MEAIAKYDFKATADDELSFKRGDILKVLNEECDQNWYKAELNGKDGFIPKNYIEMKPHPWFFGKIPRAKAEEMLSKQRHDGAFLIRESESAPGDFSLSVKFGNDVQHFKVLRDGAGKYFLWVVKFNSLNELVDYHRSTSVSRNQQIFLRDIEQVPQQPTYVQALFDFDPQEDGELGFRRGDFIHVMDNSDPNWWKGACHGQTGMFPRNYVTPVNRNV
Chain of FGFR3 (P22607 whole entry, looked up): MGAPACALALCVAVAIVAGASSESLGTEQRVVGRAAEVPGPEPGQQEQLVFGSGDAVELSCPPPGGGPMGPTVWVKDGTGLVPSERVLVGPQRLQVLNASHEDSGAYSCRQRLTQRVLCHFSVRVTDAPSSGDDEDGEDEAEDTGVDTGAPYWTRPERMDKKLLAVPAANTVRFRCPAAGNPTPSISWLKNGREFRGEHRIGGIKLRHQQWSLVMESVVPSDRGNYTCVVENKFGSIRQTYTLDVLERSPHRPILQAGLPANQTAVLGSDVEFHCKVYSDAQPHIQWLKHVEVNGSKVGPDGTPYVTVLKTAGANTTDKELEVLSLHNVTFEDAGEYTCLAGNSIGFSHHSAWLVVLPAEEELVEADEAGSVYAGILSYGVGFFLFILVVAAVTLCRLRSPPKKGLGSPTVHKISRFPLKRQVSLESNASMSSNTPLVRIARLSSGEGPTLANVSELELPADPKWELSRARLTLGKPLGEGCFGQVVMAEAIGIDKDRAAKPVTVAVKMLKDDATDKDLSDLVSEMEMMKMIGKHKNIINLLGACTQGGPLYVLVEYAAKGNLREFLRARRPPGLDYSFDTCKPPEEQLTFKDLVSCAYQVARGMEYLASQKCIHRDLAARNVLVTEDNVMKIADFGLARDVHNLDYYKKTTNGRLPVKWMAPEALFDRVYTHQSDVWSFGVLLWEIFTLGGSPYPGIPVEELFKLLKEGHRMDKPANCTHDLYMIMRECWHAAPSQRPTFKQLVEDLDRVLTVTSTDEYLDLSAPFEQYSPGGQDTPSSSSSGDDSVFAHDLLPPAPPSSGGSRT

Consider SDVDLYQVRIA [PSMD9_Y70_T74I], for which the SH2 binding enrichment in data set [1] is 0.431; in [2] it was 0.793; in [3], 0.789. Also, the phosphorylation enrichment in data set [4] was found to be 0.594; in data set [5] it was 0.598; in [6], 0.583; in [7], 2.13; in [8], 0.579; in data set [9], 0.497. Moreover, the phosphorylation enrichment in data set [10] worked out at 1.86; in data set [11], 0.756; in [12], 1.04; in data set [13], 0.463; in data set [14], 0.92; in data set [15], 4.07. The phosphorylation enrichment in data set [16] is 0.892.
With SEKISYVFMKR [SSX7_Y48_L43S_YF], the results for the SH2 binding enrichment in [1], in [2] and in [3] were 0.386, 0.906 and 0.681, respectively. Besides, the phosphorylation enrichment was 0.599 in data set [4]; 0.52 in data set [5]; 0.75 in data set [6]; 0.412 in data set [7]; 0.822 in data set [8]; 0.597 in data set [9]. The phosphorylation enrichment was 0.436 in [10]; 0.458 in data set [11]; 1.05 in [12]; 0.378 in data set [13]; 1.25 in data set [14]; 0.46 in [15]. Also, in data set [16], the phosphorylation enrichment was 1.32.
SEKIVYGHVDD [ACO2_Y71_L74V]: the SH2 binding enrichment in [1] was 0.556; in [2], 1.59; in data set [3] it was 0.903. Further, the phosphorylation enrichment in data set [4] came out at 0.41; in data set [5], 0.471; in data set [6], 0.529; in [7], 0.649; in data set [8], 0.677; in [9] it was 0.469. The phosphorylation enrichment worked out at 0.515 in data set [10]; 0.466 in data set [11]; 0.738 in data set [12]; 0.383 in data set [13]; 0.715 in [14]; 0.479 in data set [15]. Besides, the phosphorylation enrichment in data set [16] is 0.805.
Take SENFTYIWWLN [PSG4_Y271_K267E_YF]: the SH2 binding enrichment in data set [1] came to 0.439; in data set [2], 0.563; in [3] it was 0.715. The phosphorylation enrichment turned out to be 0.73 in data set [4]; 0.543 in [5]; 1.03 in data set [6]; 0.355 in data set [7]; 0.96 in data set [8]; 0.771 in data set [9]. For the same sequence, the phosphorylation enrichment amounted to 0.513 in [10]; 0.674 in data set [11]; 1.46 in data set [12]; 0.404 in data set [13]; 1.47 in data set [14]; 0.559 in data set [15]. In addition, in data set [16], the phosphorylation enrichment was 1.59.
As to SEPDLYCDPRG [PKP1_Y160], the figures for the SH2 binding enrichment in [1], in data set [2] and in data set [3] were 0.563, 0.93 and 1.03, respectively. Further, the phosphorylation enrichment came to 4.34 in data set [4]; 1.94 in [5]; 1.45 in data set [6]; 2.17 in data set [7]; 1.31 in data set [8]; 3.01 in [9]. Moreover, the phosphorylation enrichment amounted to 1.95 in data set [10]; 2.37 in data set [11]; 1.23 in [12]; 1.46 in data set [13]; 2.48 in [14]; 5.26 in [15]. For the same sequence, in data set [16], the phosphorylation enrichment came out at 1.15.
As to SETDDYAEIIV [PTK2_Y397_D402V], the figures for the SH2 binding enrichment in data set [1], in [2] and in data set [3] were 0.795, 0.761 and 0.975, respectively. Moreover, the phosphorylation enrichment in [4] was 0.83; in [5] it was 1.16; in data set [6] it was 1.2; in [7], 0.61; in data set [8], 0.677; in [9] it was 1.04. The phosphorylation enrichment in data set [10] came out at 0.519; in [11], 0.82; in data set [12], 1.09; in data set [13] it was 0.524; in data set [14], 1.4; in data set [15], 0.655. In data set [16], the phosphorylation enrichment came to 1.17.
As for SGDITYGQFAQ [PLCG1_Y210], the SH2 binding enrichment in data set [1] amounted to 0.53; in data set [2], 0.557; in data set [3] it was 0.716. Besides, the phosphorylation enrichment was determined as 0.47 in data set [4]; 0.426 in [5]; 0.422 in [6]; 5.78 in [7]; 0.495 in [8]; 0.4 in [9]. Also, the phosphorylation enrichment amounted to 8.52 in [10]; 0.387 in data set [11]; 0.796 in [12]; 0.362 in data set [13]; 0.596 in data set [14]; 4.63 in data set [15]. Moreover, in data set [16], the phosphorylation enrichment came to 0.632.
With SGPRRYTIAAL [TTR_Y125], the SH2 binding enrichment in [1] was determined as 0.533; in data set [2], 0.572; in [3], 0.867. Further, the phosphorylation enrichment in data set [4] stood at 0.444; in [5], 0.456; in [6] it was 0.419; in data set [7], 0.498; in [8], 0.637; in data set [9], 0.53. Further, the phosphorylation enrichment came out at 0.482 in data set [10]; 0.383 in [11]; 0.639 in data set [12]; 0.428 in data set [13]; 0.605 in data set [14]; 0.375 in data set [15]. Besides, in data set [16], the phosphorylation enrichment was 0.579.
SGTYQYIIAKF [FOXL2_Y83_I80T]: the SH2 binding enrichment in data set [1] stood at 0.696; in data set [2], 0.541; in [3], 0.74. The phosphorylation enrichment was 4.98 in [4]; 3.65 in data set [5]; 2.42 in [6]; 0.943 in [7]; 1.17 in data set [8]; 1.53 in [9]. Moreover, the phosphorylation enrichment amounted to 0.749 in [10]; 2.58 in data set [11]; 1.29 in data set [12]; 5.26 in data set [13]; 1.43 in [14]; 2.06 in [15]. In data set [16], the phosphorylation enrichment is 1.51.
